# Results reported in article PMC4335501.
# Experiments:
# [1] = molecular target: 52SFK N308E (human adenovirus type 52 (HAdV-52)); assay: gas-phase electrophoretic mobility molecular analysis (GEMMA); 20 mM ammonium acetate pH 7.8, 0.005% Tween 20; 0.05 mg/ml (52SFK wt, mutants 1-3) or 0.06 mg/ml (mutants 4-6)
# [2] = molecular target: 52SFK N318A (human adenovirus type 52 (HAdV-52)); assay: as above
# [3] = molecular target: 52SFK R316A (human adenovirus type 52 (HAdV-52)); assay: as above
# [4] = molecular target: 52SFK R316A/N318A (human adenovirus type 52 (HAdV-52)); assay: as above
# [5] = molecular target: 52SFK R316E (human adenovirus type 52 (HAdV-52)); assay: as above
# [6] = molecular target: 52SFK R316E/N318A (human adenovirus type 52 (HAdV-52)); assay: as above
# soluble CAR-D1 = assay: SPR; CAR-D1D2 Fc chimera or CAR-D1 amine-coupled to CM5 (900-1100 RU); 52LFK or 52SFK as analytes, two-fold series 8 nM to 2 μM; 25°C; HBS-EP+ (10 mM HEPES, 150 mM NaCl, 3 mM EDTA, 0.005% P20, pH 7.4); Biacore T100
# [7] = molecular target: Recombinant human CAR (CXADR Fc chimera; full length extracellular D1D2 domain) (human) (UniProt P78310); assay: as above
# [8] = molecular target: HAdV-52 short fiber knob (human adenovirus type 52 (HAdV-52)); assay: gas-phase electrophoretic mobility molecular analysis (GEMMA); 20 mM ammonium acetate pH 7.8, 0.005% Tween 20; 0.05 mg/ml (52SFK wt, mutants 1-3) or 0.06 mg/ml (mutants 4-6)
# [9] = molecular target: HAdV-52 short fiber knob (human adenovirus type 52 (HAdV-52)); assay: crystal structure; 52SFK crystals soaked with 20 mM 2-O-methyl sialic acid; 1.65 Å; threefold NCS
# [10] = molecular target: HAdV-52 virion (strain TB3-2243) (human adenovirus type 52 (HAdV-52)); assay: radioligand binding; competition: soluble CAR-D1 preincubated with 35S-labelled virions for 1 h on ice before the virions were added to A549 cells; read-out is the cell-bound radioactivity; concentration of CAR-D1 not stated
# [11] = molecular target: HAdV-5 virion (Ad75; source ATCC); assay: as above
# Sequence of Recombinant human CAR (CXADR Fc chimera; full length extracellular D1D2 domain) (human) (P78310 20-237, change not shown): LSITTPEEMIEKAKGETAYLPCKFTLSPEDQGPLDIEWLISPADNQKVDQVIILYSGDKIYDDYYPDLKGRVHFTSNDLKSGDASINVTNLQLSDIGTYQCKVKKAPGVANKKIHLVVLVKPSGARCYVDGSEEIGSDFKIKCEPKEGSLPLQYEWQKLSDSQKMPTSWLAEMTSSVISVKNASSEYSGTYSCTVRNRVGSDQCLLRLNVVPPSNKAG
substance,measurement,setting,value
52SFK N308E (domain or fragment),stoichiometry N,[1],3
52SFK N318A (domain or fragment),stoichiometry N,[2],3
52SFK R316A (domain or fragment),stoichiometry N,[3],3
52SFK R316A/N318A (domain or fragment),stoichiometry N,[4],3
52SFK R316E (domain or fragment),stoichiometry N,[5],3
52SFK R316E/N318A (domain or fragment),stoichiometry N,[6],3
HAdV-52 long fiber knob (domain or fragment),Kd,soluble CAR-D1,2.6 nM
same,Kd,[7],5 nM
HAdV-52 short fiber knob (domain or fragment),stoichiometry N,[8],3
same,stoichiometry N,[9],3
soluble CAR-D1 (domain or fragment),percent reduction of virion binding to A549 cells,[10],20%
same,percent reduction of virion binding to A549 cells,[11],50%
